In US20240240209A1, “SYNTHESIS OF ENANTIOPURE CIS-A-IRONE FROM A RENEWABLE CARBON SOURCE” (Agency for Science, Technology and Research, priority 2021, published 2024):
Entries after “also recorded” stand apart in the source; their conditions may differ.

Experiment: In-vivo cis-α-irone production screening of pMT7 and pMT12 mutants
Type: cell-based, Escherichia coli
Details: for in-vivo production of cis-α-irone (in words): single mutations vs parent (pMT7 or pMT12); for Fold change in in-vivo cis-α-irone production: mutations made to pMT12, normalized to pMT12 (=1)
From the text: Q60 was identified as another possible mutation site.
FIGS. 24a and 24b show the in-vivo and in-vitro cis-α-irone production of other possible single mutations to pMT12. The in-vitro results in FIG. 24b validate the mutations and in-vivo results in FIG. 24a. The mutations in FIG. 24 include Q11H (SEQ ID No. 23), V12R (SEQ ID No. 24), A95C (SEQ ID No. 25), H123Q (SEQ ID No. 26), E127T (SEQ ID No. 27), M137T (SEQ ID No. 28), D176V (SEQ ID No. 29), D176Y (SEQ ID No. 30). P191S (SEQ ID No. 31), P191V (SEQ ID No. 32), F212L (SEQ ID No. 33), S268H (SEQ ID No. 34), AND T272A (SEQ ID No. 35). The screening results in FIGS. 24 and 25 are semi-quantitative to identify beneficial mutants that give greater than one-fold change of irone production as compared to pMT12.
FIGS. 25a to 25c (and Table 4) show the in-vivo testing results of other possible mutations that may be made to pMT12 to improve its in-vivo production of cis-α-irone. FIGS. 25a to 25c each include two dotted lines to account for a 10% error bar to show the normalized fold change of 0.9 and 1.1.
The four plasmids were transformed into E. coli BL21 (DE3), ΔaroA, ΔaroB, ΔaroC, ΔserC or E. coli BL21 (DE3), ΔaroA, ΔaroB, ΔaroC, ΔserC, ΔmetJ strains and plated on Agar plate containing LB media (10 g, tryptone. 5 g, yeast extract. 10 g, NaCl) supplemented with appropriate antibiotics (100 mg/L ampicillin, 34 mg/L chloramphenicol, 50 mg/L kanamycin, and 100 mg/L spectinomycin). One colony was picked and inoculate into LB media with antibiotics. 1% of overnight culture was inoculated into 1 ml fresh auto-inducing chemically defined media. The chemical media contains carbon source solution: 0.5 g/L glucose, 10 g/L glycerol; inducer: 30 mM lactose and base media: 2 g/L ammonium sulfate, 4.2 g/L KH2PO4, 11.24 g/L K2HPO4, 1.7 g/L citric acid, 0.5 g/L MgSO4, and 10 mL/L trace element solution. The trace element solution (100×) contained 0.25 g/L CoCl2·6H2O, 1.5 g/L MnSO4·4H2O, 0.15 g/L CuSO4·2H2O, 0.3 g/L H3BO3, 0.25 g/L Na2MoO4·2H2O, 0.8 g/L Zn(CH3COO)2, 5 g/L Fe(III) citrate, and 0.84 g/L ethylenediaminetetra-acetic acid (EDTA) at pH 8.0. The culture was grown at 28° C. for 3 days and the products were extracted with 1 ml hexane for GCMS analysis. An example of a fed-batch process for α-ionone Is briefly described, overnight culture was inoculated into 2 L chemical media comprising the base media and 5 g/L glucose, at 37° C. and 30% DO. pH was controlled at 7 with base solution (14% ammonia and 0.5 M NaOH). Feed media (500 g/L glucose and 5 g/L MgSO4) was added into bioreactor once OD600 reached 5, at a rate of 7.15-25.75 g/h glucose for about 4-5 h until OD600 reached ˜30-40. Subsequently, 0.1 mM IPTG was added to induce the production, and feeding rate was kept at a constant rate of 10 g/h glucose, and the temperature was reduced to 30° C. DO was adjusted to 2% or 10%. Feeding was stopped at 113 h when 2 L feeding media was finished, but the culture was further incubated for 24 h. To capture the evaporated products, the exhaust was connected to 25 ml sunflower oil.

Molecule | in-vivo production of cis-α-irone (in words) | Fold change in in-vivo cis-α-irone production
Q11H (protein, Modified from pMT1) MPQEARTPQQHVTADEVGDWYDKFGEVYHLTLGESVHCGLWFPPDAPVPQDMELVTMSSQAQDRFTDYLIETLDPKAGQHLLDIGCGTGRPALKAARQRGIAVTGVAVSKEQIAAANRLAAGHGLTERLTFEVADAMRLPYEDESFDCAWAIESLDHMDRAKALGEAWRVLKPGGDLLVAEEVVTEELTEPETALFETLFALNVPPRLGEFFDIVSGAGFHTLSLKDLSADLAMTMNVFALGVYSRRAEFTERFGAEFVDGLLAGLGSAQETVIRKTRFFMATLRKPAV | significant increase | –
D176Y (protein, Modified from pMT1) MPQEARTPQQQVTADEVGDWYDKFGEVYHLTLGESVHCGLWFPPDAPVPQDMELVTMSSQAQDRFTDYLIETLDPKAGQHLLDIGCGTGRPALKAARQRGIAVTGVAVSKEQIAAANRLAAGHGLTERLTFEVADAMRLPYEDESFDCAWAIESLDHMDRAKALGEAWRVLKPGGYLLVAEEVVTEELTEPETALFETLFALNVPPRLGEFFDIVSGAGFHTLSLKDLSADLAMTMNVFALGVYSRRAEFTERFGAEFVDGLLAGLGSAQETVIRKTRFFMATLRKPAV | significant increase | –
P191V (protein, Modified from pMT1) MPQEARTPQQQVTADEVGDWYDKFGEVYHLTLGESVHCGLWFPPDAPVPQDMELVTMSSQAQDRFTDYLIETLDPKAGQHLLDIGCGTGRPALKAARQRGIAVTGVAVSKEQIAAANRLAAGHGLTERLTFEVADAMRLPYEDESFDCAWAIESLDHMDRAKALGEAWRVLKPGGDLLVAEEVVTEELTEVETALFETLFALNVPPRLGEFFDIVSGAGFHTLSLKDLSADLAMTMNVFALGVYSRRAEFTERFGAEFVDGLLAGLGSAQETVIRKTRFFMATLRKPAV | significant increase | 1.26
D159L (protein, Modified from pMT1) MPQEARTPQQQVTADEVGDWYDKFGEVYHLTLGESVHCGLWFPPDAPVPQDMELVTMSSQAQDRFTDYLIETLDPKAGQHLLDIGCGTGRPALKAARQRGIAVTGVAVSKEQIAAANRLAAGHGLTERLTFEVADAMRLPYEDESFDCAWAIESLDHMLRAKALGEAWRVLKPGGDLLVAEEVVTEELTEPETALFETLFALNVPPRLGEFFDIVSGAGFHTLSLKDLSADLAMTMNVFALGVYSRRAEFTERFGAEFVDGLLAGLGSAQETVIRKTRFFMATLRKPAV | significant improvement | 1.55
D176V (protein, Modified from pMT1) MPQEARTPQQQVTADEVGDWYDKFGEVYHLTLGESVHCGLWFPPDAPVPQDMELVTMSSQAQDRFTDYLIETLDPKAGQHLLDIGCGTGRPALKAARQRGIAVTGVAVSKEQIAAANRLAAGHGLTERLTFEVADAMRLPYEDESFDCAWAIESLDHMDRAKALGEAWRVLKPGGVLLVAEEVVTEELTEPETALFETLFALNVPPRLGEFFDIVSGAGFHTLSLKDLSADLAMTMNVFALGVYSRRAEFTERFGAEFVDGLLAGLGSAQETVIRKTRFFMATLRKPAV | significant increase; also recorded: significant improvement | 2.24
D176L, A248V: pMT12 with D176L and A248V (protein, Modified from pMT1) MPQEARTPQQQVTADEVGDWYDKFGEVYHLTLGESVHCGLWFPPDAPVPQDMELVTMSSQAQDRFTDYLIETLDPKAGQHLLDIGCGTGRPALKAARQRGIAVTGVAVSKEQIAAANRLAAGHGLTERLTFEVADAMRLPYEDESFDCAWAIESLDHMDRAKALGEAWRVLKPGGLLLVAEEVVTEELTEPETALFETLFALNVPPRLGEFFDIVSGAGFHTLSLKDLSADLAMTMNVFALGVYSRRVEFTERFGAEFVDGLLAGLGSAQETVIRKTRFFMATLRKPAV | significant improvement | 3.14
